{"source": "patent US20040018957A1", "about": "“Crystal structure of a Ras-P13K complex” (priority 2000, published 2004)"}
{"biological_target": "T1, N-Ras.mant-GMPPNP (Homo sapiens, UniProt P01111)", "T1 construct": "fluorescence anisotropy of full length, unmodified N-Ras.mant-GMPPNP", "T1 sequence (P01111 whole entry)": "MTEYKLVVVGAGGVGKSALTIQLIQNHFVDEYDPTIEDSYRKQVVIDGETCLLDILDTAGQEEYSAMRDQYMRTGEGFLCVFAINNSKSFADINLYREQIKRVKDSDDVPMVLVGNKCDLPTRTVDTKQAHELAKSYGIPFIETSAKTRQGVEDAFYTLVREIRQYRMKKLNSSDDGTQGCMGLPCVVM", "assay": "Fluorescence anisotropy titration of PI3Kγ 144-1102 into N-Ras.mant-GMPPNP", "type": "binding", "conditions": "mutants in the 144-1102 construct, FIG. 2A", "protocol": "Mant-nucleotides were synthesised as described previously (Jameson and Eccleston, 1997). N-Ras and H-Ras mutants were loaded with mant-GMPPNP as in (Moore et al., 1993), gel filtered into running buffer (20 mM Tris pH 7.5, 2 mM MgCl2, 1 mM DTT), and frozen at −80° C. The concentration of Ras.mant-GMPPNP was determined by measuring the absorbance of the mant group at […] with ε=5700 M^−1 cm^−1 (Hiratsuka, 1983). For binding assays, the 144-1102 human PI3Kγ was titrated into a 1 μM solution of fill length, unmodified N-Ras.mant-GMPPNP. Data were collected with SLM 8000 S and ISS PC1 spectrofluorimeters, set up in the T-format and L-format, respectively, with prism polarizers. All measurements were taken at 20° C. with a λex of 366 nm. Both emission PMTs were fitted with 399 nm cutoff filters. Five measurements of each data point were obtained and averaged. Data were fitted to the binding equation."}
{"molecule": "E267K: tighter-binding PI3Kγ mutant (protein, UniProt P48736 1-1102, looked up, variant E267K) Phosphatidylinositol …: MELENYKQPVVLREDNCRRRRRMKPRSAAASLSSMELIPIEFVLPTSQRKCKSPETALLHVAGHGNVEQMKAQVWLRALETSVAADFYHRLGPHHFLLLYQKKGQWYEIYDKYQVVQTLDCLRYWKATHRSPGQIHLVQRHPPSEESQAFQRQLTALIGYDVTDVSNVHDDELEFTRRGLVTPRMAEVASRDPKLYAMHPWVTSKPLPEYLWKKIANNCIFIVIHRSTTSQTIKVSPDDTPGAILQSFFTKMAKKKSLMDIPESQSKQDFVLRVCGRDEYLVGETPIKNFQWVRHCLKNGEEIHVVLDTPPDPALDEVRKEEWPLVDDCTGVTGYHEQLTIHGKDHESVFTVSLWDCDRKFRVKIRGIDIPVLPRNTDLTVFVEANIQHGQQVLCQRRTSPKPFTEEVLWNVWLEFSIKIKDLPKGALLNLQIYCGKAPALSSKASAESPSSESKGKVQLLYYVNLLLIDHRFLLRRGEYVLHMWQISGKGEDQGSFNADKLTSATNPDKENSMSISILLDNYCHPIALPKHQPTPDPEGDRVRAEMPNQLRKQLEAIIATDPLNPLTAEDKELLWHFRYESLKHPKAYPKLFSSVKWGQQEIVAKTYQLLARREVWDQSALDVGLTMQLLDCNFSDENVRAIAVQKLESLEDDDVLHYLLQLVQAVKFEPYHDSALARFLLKRGLRNKRIGHFLFWFLRSEIAQSRHYQQRFAVILEAYLRGCGTAMLHDFTQQVQVIEMLQKVTLDIKSLSAEKYDVSSQVISQLKQKLENLQNSQLPESFRVPYDPGLKAGALAIEKCKVMASKKKPLWLEFKCADPTALSNETIGIIFKHGDDLRQDMLILQILRIMESIWETESLDLCLLPYGCISTGDKIGMIEIVKDATTIAKIQQSTVGNTGAFKDEVLNHWLKEKSPTEEKFQAAVERFVYSCAGYCVATFVLGIGDRHNDNIMITETGNLFHIDFGHILGNYKSFLGINKERVPFVLTPDFLFVMGTSGKKTSPHFQKFQDICVKAYLALRHHTNLLIILFSMMLMTGMPQLTSKEDIEYIRDALTVGKNEEDAKKYFLDQIEVCRDKGWTVQFNWFLHLVLGIKQGEKHSA", "effect of PI3Kγ RBD mutation on binding to Ras": "tighter-binding"}
{"molecule": "D260A: PI3Kγ RBD mutant (protein, UniProt P48736 1-1102, looked up, variant D260A) Phosphatidylinositol …: MELENYKQPVVLREDNCRRRRRMKPRSAAASLSSMELIPIEFVLPTSQRKCKSPETALLHVAGHGNVEQMKAQVWLRALETSVAADFYHRLGPHHFLLLYQKKGQWYEIYDKYQVVQTLDCLRYWKATHRSPGQIHLVQRHPPSEESQAFQRQLTALIGYDVTDVSNVHDDELEFTRRGLVTPRMAEVASRDPKLYAMHPWVTSKPLPEYLWKKIANNCIFIVIHRSTTSQTIKVSPDDTPGAILQSFFTKMAKKKSLMAIPESQSEQDFVLRVCGRDEYLVGETPIKNFQWVRHCLKNGEEIHVVLDTPPDPALDEVRKEEWPLVDDCTGVTGYHEQLTIHGKDHESVFTVSLWDCDRKFRVKIRGIDIPVLPRNTDLTVFVEANIQHGQQVLCQRRTSPKPFTEEVLWNVWLEFSIKIKDLPKGALLNLQIYCGKAPALSSKASAESPSSESKGKVQLLYYVNLLLIDHRFLLRRGEYVLHMWQISGKGEDQGSFNADKLTSATNPDKENSMSISILLDNYCHPIALPKHQPTPDPEGDRVRAEMPNQLRKQLEAIIATDPLNPLTAEDKELLWHFRYESLKHPKAYPKLFSSVKWGQQEIVAKTYQLLARREVWDQSALDVGLTMQLLDCNFSDENVRAIAVQKLESLEDDDVLHYLLQLVQAVKFEPYHDSALARFLLKRGLRNKRIGHFLFWFLRSEIAQSRHYQQRFAVILEAYLRGCGTAMLHDFTQQVQVIEMLQKVTLDIKSLSAEKYDVSSQVISQLKQKLENLQNSQLPESFRVPYDPGLKAGALAIEKCKVMASKKKPLWLEFKCADPTALSNETIGIIFKHGDDLRQDMLILQILRIMESIWETESLDLCLLPYGCISTGDKIGMIEIVKDATTIAKIQQSTVGNTGAFKDEVLNHWLKEKSPTEEKFQAAVERFVYSCAGYCVATFVLGIGDRHNDNIMITETGNLFHIDFGHILGNYKSFLGINKERVPFVLTPDFLFVMGTSGKKTSPHFQKFQDICVKAYLALRHHTNLLIILFSMMLMTGMPQLTSKEDIEYIRDALTVGKNEEDAKKYFLDQIEVCRDKGWTVQFNWFLHLVLGIKQGEKHSA", "effect of PI3Kγ RBD mutation on binding to Ras": "reduce binding by up to an order of magnitude"}
{"molecule": "R226A: PI3Kγ RBD mutant (protein, UniProt P48736 1-1102, looked up, variant R226A) Phosphatidylinositol …: MELENYKQPVVLREDNCRRRRRMKPRSAAASLSSMELIPIEFVLPTSQRKCKSPETALLHVAGHGNVEQMKAQVWLRALETSVAADFYHRLGPHHFLLLYQKKGQWYEIYDKYQVVQTLDCLRYWKATHRSPGQIHLVQRHPPSEESQAFQRQLTALIGYDVTDVSNVHDDELEFTRRGLVTPRMAEVASRDPKLYAMHPWVTSKPLPEYLWKKIANNCIFIVIHASTTSQTIKVSPDDTPGAILQSFFTKMAKKKSLMDIPESQSEQDFVLRVCGRDEYLVGETPIKNFQWVRHCLKNGEEIHVVLDTPPDPALDEVRKEEWPLVDDCTGVTGYHEQLTIHGKDHESVFTVSLWDCDRKFRVKIRGIDIPVLPRNTDLTVFVEANIQHGQQVLCQRRTSPKPFTEEVLWNVWLEFSIKIKDLPKGALLNLQIYCGKAPALSSKASAESPSSESKGKVQLLYYVNLLLIDHRFLLRRGEYVLHMWQISGKGEDQGSFNADKLTSATNPDKENSMSISILLDNYCHPIALPKHQPTPDPEGDRVRAEMPNQLRKQLEAIIATDPLNPLTAEDKELLWHFRYESLKHPKAYPKLFSSVKWGQQEIVAKTYQLLARREVWDQSALDVGLTMQLLDCNFSDENVRAIAVQKLESLEDDDVLHYLLQLVQAVKFEPYHDSALARFLLKRGLRNKRIGHFLFWFLRSEIAQSRHYQQRFAVILEAYLRGCGTAMLHDFTQQVQVIEMLQKVTLDIKSLSAEKYDVSSQVISQLKQKLENLQNSQLPESFRVPYDPGLKAGALAIEKCKVMASKKKPLWLEFKCADPTALSNETIGIIFKHGDDLRQDMLILQILRIMESIWETESLDLCLLPYGCISTGDKIGMIEIVKDATTIAKIQQSTVGNTGAFKDEVLNHWLKEKSPTEEKFQAAVERFVYSCAGYCVATFVLGIGDRHNDNIMITETGNLFHIDFGHILGNYKSFLGINKERVPFVLTPDFLFVMGTSGKKTSPHFQKFQDICVKAYLALRHHTNLLIILFSMMLMTGMPQLTSKEDIEYIRDALTVGKNEEDAKKYFLDQIEVCRDKGWTVQFNWFLHLVLGIKQGEKHSA", "effect of PI3Kγ RBD mutation on binding to Ras": "reduce binding by up to an order of magnitude"}
{"molecule": "K256A: PI3Kγ RBD mutant (protein, UniProt P48736 1-1102, looked up, variant K256A) Phosphatidylinositol …: MELENYKQPVVLREDNCRRRRRMKPRSAAASLSSMELIPIEFVLPTSQRKCKSPETALLHVAGHGNVEQMKAQVWLRALETSVAADFYHRLGPHHFLLLYQKKGQWYEIYDKYQVVQTLDCLRYWKATHRSPGQIHLVQRHPPSEESQAFQRQLTALIGYDVTDVSNVHDDELEFTRRGLVTPRMAEVASRDPKLYAMHPWVTSKPLPEYLWKKIANNCIFIVIHRSTTSQTIKVSPDDTPGAILQSFFTKMAKKASLMDIPESQSEQDFVLRVCGRDEYLVGETPIKNFQWVRHCLKNGEEIHVVLDTPPDPALDEVRKEEWPLVDDCTGVTGYHEQLTIHGKDHESVFTVSLWDCDRKFRVKIRGIDIPVLPRNTDLTVFVEANIQHGQQVLCQRRTSPKPFTEEVLWNVWLEFSIKIKDLPKGALLNLQIYCGKAPALSSKASAESPSSESKGKVQLLYYVNLLLIDHRFLLRRGEYVLHMWQISGKGEDQGSFNADKLTSATNPDKENSMSISILLDNYCHPIALPKHQPTPDPEGDRVRAEMPNQLRKQLEAIIATDPLNPLTAEDKELLWHFRYESLKHPKAYPKLFSSVKWGQQEIVAKTYQLLARREVWDQSALDVGLTMQLLDCNFSDENVRAIAVQKLESLEDDDVLHYLLQLVQAVKFEPYHDSALARFLLKRGLRNKRIGHFLFWFLRSEIAQSRHYQQRFAVILEAYLRGCGTAMLHDFTQQVQVIEMLQKVTLDIKSLSAEKYDVSSQVISQLKQKLENLQNSQLPESFRVPYDPGLKAGALAIEKCKVMASKKKPLWLEFKCADPTALSNETIGIIFKHGDDLRQDMLILQILRIMESIWETESLDLCLLPYGCISTGDKIGMIEIVKDATTIAKIQQSTVGNTGAFKDEVLNHWLKEKSPTEEKFQAAVERFVYSCAGYCVATFVLGIGDRHNDNIMITETGNLFHIDFGHILGNYKSFLGINKERVPFVLTPDFLFVMGTSGKKTSPHFQKFQDICVKAYLALRHHTNLLIILFSMMLMTGMPQLTSKEDIEYIRDALTVGKNEEDAKKYFLDQIEVCRDKGWTVQFNWFLHLVLGIKQGEKHSA", "effect of PI3Kγ RBD mutation on binding to Ras": "reduce binding by up to an order of magnitude"}
{"molecule": "Lys-254: PI3Kγ mutant, Lys-254 mutated to Ala (protein, UniProt P48736 1-1102, looked up, variant K254A) Phosphatidylinositol …: MELENYKQPVVLREDNCRRRRRMKPRSAAASLSSMELIPIEFVLPTSQRKCKSPETALLHVAGHGNVEQMKAQVWLRALETSVAADFYHRLGPHHFLLLYQKKGQWYEIYDKYQVVQTLDCLRYWKATHRSPGQIHLVQRHPPSEESQAFQRQLTALIGYDVTDVSNVHDDELEFTRRGLVTPRMAEVASRDPKLYAMHPWVTSKPLPEYLWKKIANNCIFIVIHRSTTSQTIKVSPDDTPGAILQSFFTKMAAKKSLMDIPESQSEQDFVLRVCGRDEYLVGETPIKNFQWVRHCLKNGEEIHVVLDTPPDPALDEVRKEEWPLVDDCTGVTGYHEQLTIHGKDHESVFTVSLWDCDRKFRVKIRGIDIPVLPRNTDLTVFVEANIQHGQQVLCQRRTSPKPFTEEVLWNVWLEFSIKIKDLPKGALLNLQIYCGKAPALSSKASAESPSSESKGKVQLLYYVNLLLIDHRFLLRRGEYVLHMWQISGKGEDQGSFNADKLTSATNPDKENSMSISILLDNYCHPIALPKHQPTPDPEGDRVRAEMPNQLRKQLEAIIATDPLNPLTAEDKELLWHFRYESLKHPKAYPKLFSSVKWGQQEIVAKTYQLLARREVWDQSALDVGLTMQLLDCNFSDENVRAIAVQKLESLEDDDVLHYLLQLVQAVKFEPYHDSALARFLLKRGLRNKRIGHFLFWFLRSEIAQSRHYQQRFAVILEAYLRGCGTAMLHDFTQQVQVIEMLQKVTLDIKSLSAEKYDVSSQVISQLKQKLENLQNSQLPESFRVPYDPGLKAGALAIEKCKVMASKKKPLWLEFKCADPTALSNETIGIIFKHGDDLRQDMLILQILRIMESIWETESLDLCLLPYGCISTGDKIGMIEIVKDATTIAKIQQSTVGNTGAFKDEVLNHWLKEKSPTEEKFQAAVERFVYSCAGYCVATFVLGIGDRHNDNIMITETGNLFHIDFGHILGNYKSFLGINKERVPFVLTPDFLFVMGTSGKKTSPHFQKFQDICVKAYLALRHHTNLLIILFSMMLMTGMPQLTSKEDIEYIRDALTVGKNEEDAKKYFLDQIEVCRDKGWTVQFNWFLHLVLGIKQGEKHSA", "effect of PI3Kγ RBD mutation on binding to Ras": "greatly lowers the affinity"}
